Our source for the Kd values is article PMC2824085 (2010).

The target of the assay is Man9GlcNAc2 glycopeptide isolated from soybean agglutinin (soybean, UniProt P05046, Man9GlcNAc2 oligosaccharide, N-linked). Put plainly: SPR; glycopeptide immobilized. (In SPR one partner is held on a chip, and binding of the other changes the refractive index at the surface.)
Sequence of Man9GlcNAc2 glycopeptide isolated from soybean agglutinin (P05046 whole entry): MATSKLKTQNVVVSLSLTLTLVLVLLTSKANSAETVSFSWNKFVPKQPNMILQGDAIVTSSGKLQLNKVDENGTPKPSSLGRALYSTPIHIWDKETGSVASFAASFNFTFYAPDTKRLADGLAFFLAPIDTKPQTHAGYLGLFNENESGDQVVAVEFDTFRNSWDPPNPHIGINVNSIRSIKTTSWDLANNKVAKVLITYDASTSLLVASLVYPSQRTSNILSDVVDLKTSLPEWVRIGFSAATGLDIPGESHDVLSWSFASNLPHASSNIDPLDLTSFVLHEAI

B1: monomeric carbohydrate-recognition domain (CRD) from DC-SIGN (domain or fragment)
chain: ERLCHPCPWEWTFFQGNCYFMSNSQRNWHDSITACKEVGAQLVVIKSAEEQNFLQLQSSRSNRFTWMGLSDLNQEGTWQWVDGSPLLPSFKQYWNRGEPNNVGEEDCAEFSGNGWNDDKCNLAKFWICKKSAASCSRDEEQFLSPAPATPNPPPA
In general, Kd refers to the free concentration of one partner at which half of the binding sites on the other are occupied at equilibrium, for simple one-to-one binding. In turn, B1 yielded a Kd of 66 µM.
